# Experimental data from the supplement of paper PMC10126150.
# ± gives the standard deviation of the averaged measurements.
# Test system: ATP
# Test: switch fluorescence ratio, 500 uM ATP over buffer (Cy3 cluster intensity, sum of 5 cycles each) (fold (ratio)); higher = stronger signal-on switching upon ATP binding; sequences stand for … in TCGTCGGCAGCGTCAGATGTGTATAAGAGACAGTTTTTTTTTTTTTTTTTTTTTTTTT…TC
# Conditions: aptamer strand: ATP DNA aptamer (quencher-CACCTGGGGGAGTATTGCGGAGGAAGG + anchor), 100 nM annealed; ATP concentration: 500 uM
# In short: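 For every switch-domain sequence, the fluorescence ratio is the mean of per-cluster values, each being summed target-cycle Cy3 intensity over summed buffer-cycle Cy3 intensity. Clusters outside 100-1000 RFU were excluded. On a modified Illumina MiSeq flow-cell, the Cy3-labelled switching-strand clusters were annealed to 100 nM quencher-labelled ATP aptamer, imaged in selection buffer and then after 15 min with 500 uM ATP at 22 °C. Five such cycles were run, with NaOH stripping and re-annealing between them.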
# 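Note: ATP exposure 15 min at 22 °C before imaging.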
row,Sequence,switch fluorescence ratio
1,AACTAGGCGC,0.9875 ± 0.0065
2,AACTAGGGCT,0.976 ± 0.028
3,AACTATTCGG,0.9788 ± 0.0054
4,AACTCCAGGG,1.35 ± 0.2
5,AACTCCTAAG,1.03 ± 0.021
6,AACTCGGGGT,1.02 ± 0.05
7,AACTCTGTTA,0.982 ± 0.03
8,AACTGCAATT,2 ± 1.1
9,AACTGGATAT,1.04 ± 0.017
10,AACTGGGGAA,0.973 ± 0.016
11,AACTGGGGAT,0.9809 ± 0.0018
12,AACTGGGGGA,1.06 ± 0.054
13,AACTGGGGTA,0.977 ± 0.01
14,AACTGGGGTT,0.9868 ± 0.0035
15,AACTGTAGAC,1.121 ± 0.0022
16,AACTGTGGAT,0.999 ± 0.034
17,AACTGTGTAC,1.056 ± 0.0085
18,AACTGTGTTT,0.983 ± 0.04
19,AACTGTTCTT,1.01 ± 0.011
20,AACTGTTTGC,0.983 ± 0.04
21,AACTTGGCAT,1.02 ± 0.011
22,AACTTGGTGG,0.944 ± 0.033
23,AACTTGTCAT,1 ± 0.0063
24,AACTTTATCC,1.09 ± 0.042
25,AACTTTATTT,0.992 ± 0.018

row,Sequence,switch fluorescence ratio
1,AAGAAGAACA,1.02 ± 0.02
2,AAGAAGGAAC,1 ± 0.02
3,AAGAAGGATG,0.982 ± 0.049
4,AAGAAGGGAG,0.982 ± 0.01
5,AAGAAGGTTG,0.9847 ± 0.0061
6,AAGAAGTTGC,0.9861 ± 0.0034
7,AAGAAGTTTT,1 ± 0.035
8,AAGACCGGGG,1.0215 ± 0.00047
9,AAGACTCACG,1.05 ± 0.052
10,AAGACTGTGC,1.01 ± 0.022
11,AAGAGAGTAT,0.992 ± 0.0083
12,AAGAGGGGAA,0.988 ± 0.062
13,AAGAGGGTTC,1.02 ± 0.081
14,AAGAGGTAGT,1.02 ± 0.015
15,AAGAGGTATA,1.01 ± 0.032
16,AAGAGGTTTG,0.949 ± 0.013
17,AAGAGTTCTT,1.01 ± 0.03
18,AAGATAGGGA,0.9792 ± 0.0035
19,AAGATAGGGG,1 ± 0.023
20,AAGATATAGA,1.014 ± 0.0027
21,AAGATATAT,0.984 ± 0.035
22,AAGATATTCT,1.027 ± 0.0091
23,AAGATGGCAG,0.986 ± 0.029
24,AAGATGTATG,0.99 ± 0.02
25,AAGATGTTAG,0.9926 ± 0.0062

row,Sequence,switch fluorescence ratio
1,AAGATGTTTG,0.975 ± 0.021
2,AAGATTCTCG,1.004 ± 0.0095
3,AAGATTTTGG,0.979 ± 0.015
4,AAGCAAATCT,1.18 ± 0.04
5,AAGCAACAGT,1.094 ± 0.0035
6,AAGCAGCCCT,1.02 ± 0.015
7,AAGCAGGGAT,0.999 ± 0.033
8,AAGCATAGGT,0.995 ± 0.018
9,AAGCCAAGTA,1 ± 0.023
10,AAGCCAGGCC,1.03 ± 0.025
11,AAGCCCCTTG,0.992 ± 0.034
12,AAGCCGTCGG,1.02 ± 0.013
13,AAGCCTAATG,0.996 ± 0.017
14,AAGCCTATTG,0.961 ± 0.017
15,AAGCCTGGAG,1.02 ± 0.026
16,AAGCCTGGTG,1.6 ± 0.063
17,AAGCCTTGGG,1.02 ± 0.022
18,AAGCCTTTGC,1.052 ± 0.0041
19,AAGCGCCTTT,0.985 ± 0.02
20,AAGCGCTGTT,1.003 ± 0.0073
21,AAGCGGACGG,0.9536 ± 0.0046
22,AAGCGGCGTA,1.01 ± 0.042
23,AAGCGGCTTC,0.988 ± 0.013
24,AAGCGGTAGG,1.03 ± 0.015
25,AAGCGGTGAG,0.989 ± 0.031

row,Sequence,switch fluorescence ratio
1,AAGCTAGTAA,0.865 ± 0.012
2,AAGCTGGCGG,0.9911 ± 0.0096
3,AAGCTTGAAG,1.01 ± 0.013
4,AAGGAAGAAA,0.974 ± 0.068
5,AAGGAAGACT,0.974 ± 0.021
6,AAGGAAGGAG,1.03 ± 0.038
7,AAGGAATAGC,1.044 ± 0.002
8,AAGGAGGGAG,0.992 ± 0.026
9,AAGGAGGTTG,0.999 ± 0.053
10,AAGGAGTATT,1.01 ± 0.026
11,AAGGAGTTGG,0.989 ± 0.025
12,AAGGATGGGA,1 ± 0.023
13,AAGGATGTGT,0.98 ± 0.012
14,AAGGATTATA,0.985 ± 0.061
15,AAGGATTCCA,0.981 ± 0.014
16,AAGGCCTTCG,1.12 ± 0.021
17,AAGGCGCGGC,0.9694 ± 0.0088
18,AAGGCGGCAT,1 ± 0.044
19,AAGGCGGCGG,0.991 ± 0.034
20,AAGGCGGGGT,0.997 ± 0.033
21,AAGGCGGTCA,1.01 ± 0.04
22,AAGGCGTCGG,0.993 ± 0.026
23,AAGGCTGTAA,0.97831 ± 0.0009
24,AAGGGAAAAA,1.03 ± 0.092
25,AAGGGAAAGA,1.02 ± 0.061
